Measured values taken from article PMC7263513.

What was measured:
[1] = biological target: SARS-CoV-2 receptor binding domain (RBD) (Severe acute respiratory syndrome coronavirus 2 (2019-nCoV) (SARS-CoV-2).) (UniProt P0DTC2)
[2] = biological target: SARS-CoV-2 receptor binding domain (RBD) (SARS-CoV-2) (UniProt P0DTC2)

Substance	IC50 of neutralisation of SARS-CoV-2 pseudovirus (293T (ACE2) cells) [1] [µg/mL]	IC50 of neutralisation of SARS-CoV-2 pseudovirus (293T (ACE2) cells) [2] [µg/mL]
C104 (antibody)	0.0233	
C002 (antibody)	0.00888	
C110 (antibody)	0.0184	
C105 (antibody)	0.0261	
C144 (antibody)		0.00691
